Experiment [1] deals with ssTorA-SBP signal peptide (Escherichia coli) (UniProt P33225). Description: SPR. The conditions noted are these: cited from earlier work.
Experiment [2] addresses TorA signal peptide 10-26 (Escherichia coli) (UniProt P33225). Description: ITC. The conditions noted are these: cited from earlier work.
Experiment [3] deals with MBP-ssTorA signal peptide (Escherichia coli) (UniProt P33225). Briefly: ITC. The conditions noted are these: cited from earlier work.
Experiment [4] deals with TorD with N-terminal His-tag (E. coli) (UniProt P36662). Description: SPR; quantitative, equilibrium response against pre-protein concentration; His-tagged REMP held on a Ni-NTA chip to 500 RU, 20 µl/min, 25°C, reference surface subtracted; Scatchard plot and Langmuir 1:1 fit; 10 mM HEPES, 150 mM NaCl, 50 µM EDTA, 0.005% P20, pH 7.4. In general terms: In SPR one partner is held on a chip, and binding of the other changes the refractive index at the surface.

The Kd is the free concentration of one partner at which half of the binding sites on the other are occupied at equilibrium, for simple one-to-one binding. By stoichiometry N is commonly meant the number of molecules, sites or subunits per partner or assembly.

Sequence of TorD (P36662 whole entry): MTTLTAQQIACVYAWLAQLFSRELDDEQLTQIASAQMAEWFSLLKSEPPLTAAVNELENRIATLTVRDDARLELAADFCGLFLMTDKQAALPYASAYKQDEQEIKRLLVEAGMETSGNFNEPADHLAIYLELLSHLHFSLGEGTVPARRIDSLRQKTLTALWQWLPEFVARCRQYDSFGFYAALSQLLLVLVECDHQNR

Turning to TorD (from UniProt P36662), the figures for the Kd in experiment [1], in experiment [2] and in experiment [3] were 3800 nM, 1700 nM and 59 nM, respectively.
With ssTorA(KK)-GFP (domain or fragment), the Kd in experiment [4] stood at 540 nM.
The substance ssTorA(KKK)-GFP (domain or fragment) had a Kd in experiment [4] of 4900 nM.
The same measure, in the same setting: with ssTorA(KR)-GFP (domain or fragment) the figure was 2900 nM; with ssTorA(RK)-GFP (domain or fragment), 3600 nM.
With “ssTorA-GFP (signal sequence of TorA fused to GFP) (domain or fragment)”, in experiment [4], the Kd stood at 330 nM and the stoichiometry N came to 1.

The record behind these values is article PMC3316669.
